Values of other authors as cited in publication PMC4826273.

Molecular target: Dll-1 (Homo sapiens) (UniProt O00548)
Assay: surface plasmon resonance

Sequence of UniProt O00548 (O00548 18-545): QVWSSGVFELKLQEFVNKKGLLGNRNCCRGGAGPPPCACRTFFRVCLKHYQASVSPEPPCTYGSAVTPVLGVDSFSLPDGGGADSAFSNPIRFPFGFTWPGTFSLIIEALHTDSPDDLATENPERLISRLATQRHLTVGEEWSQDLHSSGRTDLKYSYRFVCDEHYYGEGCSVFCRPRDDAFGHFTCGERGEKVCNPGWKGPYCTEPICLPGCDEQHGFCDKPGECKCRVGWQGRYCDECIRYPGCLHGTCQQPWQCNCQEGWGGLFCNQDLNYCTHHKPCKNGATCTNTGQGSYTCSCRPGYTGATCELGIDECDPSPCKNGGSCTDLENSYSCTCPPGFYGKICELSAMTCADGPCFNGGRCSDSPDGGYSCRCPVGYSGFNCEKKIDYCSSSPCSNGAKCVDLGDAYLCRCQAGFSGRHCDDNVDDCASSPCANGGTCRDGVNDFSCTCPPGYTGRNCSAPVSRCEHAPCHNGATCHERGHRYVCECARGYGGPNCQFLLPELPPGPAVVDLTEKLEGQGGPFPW

Notch1 (from UniProt P46531)
Kd: 130 µM
